Data published in paper PMC7835349 (Communications Biology, 2021).
Several values for one entry are separate records, joined by “and”; a condition that tells them apart may be missing. Identical values can stand only once.

How the values were obtained:
in vivo = settings: beagle, dog
[1] = Tumour pharmacokinetics (released and total AZD4320) in RS4;11 tumours; format: in vivo, C.B-17 SCID mouse; settings: for Concentration of Released AZD4320 in Tumour, Mean / Concentration of Released AZD4320 in Tumour, individual samples (Fig 5g/5h) / Concentrations of Total AZD4320 in Tumour, individual samples: 10 mg/kg AZD4320 equivalent; for Concentration of Released AZD4320 in Tumour, individual samples (Fig 5g/5h) / Concentrations of Total AZD4320 in Tumour, individual samples / Concentration of total AZD4320 in tumour: listed as SPL-8977; for Mean concentration of total AZD4320 in tumour / Concentration of total AZD4320 in tumour: tumour tissue; for Mean concentration of total AZD4320 in tumour: mean of 3 samples
Excerpt: For tumour measurements, tumours were harvested, split into smaller pieces and snap frozen in liquid nitrogen. Frozen tumour samples were subsequently weighed and then homogenised for both ‘released’ and ‘total’ AZD4320. For ‘released’ AZD4320, samples were homogenised on ice with an equal volume (w/v) of blank plasma containing 0.2 M citric acid. The samples were then processed according to the aforementioned plasma approach. For ‘total’ AZD4320, samples were homogenised with an equal volume of plasma (w/v) and then processed according to the aforementioned ‘total’ approach.
Sample analyses were performed in batches containing study samples, calibration standards at 10 concentration levels, QC samples at three concentration levels in duplicate and blank samples. The analytical run acceptance criteria for calibration standards and QC samples was that at least 75% of back-calculated concentrations for calibration standards and at least 2/3 of the QC samples (at least 50% at each concentration level) should be within ±20% (±25% at LLOQ) from nominal value.
(§1) Female C.B.−17 SCID mice were purchased from Charles River Laboratories. Mice were 5–8 weeks old at the time of tumour implantation. All xenograft studies were conducted at our Association for the Assessment and Accreditation of Laboratory Animal Care accredited facility in Waltham, MA in accordance with ethical regulations described in the guidelines established by the internal Institutional Animal Care and Use Committee. The dendrimer conjugates were formulated in citrate/phosphate buffer pH 5.0, diluted 1:10 with 5% glucose containing 1% w/v Kolliphor HS15, and AZD4320 was formulated in 30% HP-β-CD and dosed as a weekly intravenous (IV) administration at a volume of 5 ml/kg at the indicated doses. Five million RS4;11, five million SUDHL-4 or five million OCI-LY-10 cells were injected subcutaneously in the right flank of mice in a volume of 0.1 ml. Tumour volumes (measured by caliper), animal body weight, and tumor condition were recorded twice weekly for the duration of the study. The tumour volume was calculated (taking length to be the longest diameter across the tumour and width to be the corresponding perpendicular diameter) using the formula: length (mm) x width (mm)^2/0.52. For efficacy studies, mice were randomized based on tumour volumes using stratified sampling and enrolled into control and treatment groups. Tumour growth inhibition from the start of treatment was quantified by measuring the difference in tumour volume between control and treated groups. Survival analysis was evaluated using Mantel-Cox test. Tumours were also taken for bioanalysis.

[2] = Mathematical model of in vivo disposition of drug-dendrimer conjugates; design: species or system mouse; settings: best fit of Eq. (3) to released AZD4320 in RS4;11 tumour
platelets = test: Platelet count in dogs; format: in vivo; settings: dog, weekly ascending doses
SUDHL-4 xenograft = SUDHL-4 xenograft efficacy and survival; format: in vivo, C.B-17 SCID mouse
Procedure: as §1

[3] = RS4;11, single dose AZD0466 34 mg/kg, 3 h, 34 mg/kg
[4] = RS4;11, single dose AZD0466 34 mg/kg, 8 h, 34 mg/kg
[5] = RS4;11, single dose AZD0466 34 mg/kg, 24 h, 34 mg/kg
[6] = RS4;11, single dose AZD0466 34 mg/kg, 48 h, 34 mg/kg
[7] = RS4;11, single dose AZD0466 34 mg/kg, 72 h, 34 mg/kg
[8] = RS4;11, single dose AZD0466 103 mg/kg, 3 h, 103 mg/kg
[9] = RS4;11, single dose AZD0466 103 mg/kg, 8 h, 103 mg/kg
[10] = RS4;11, single dose AZD0466 103 mg/kg, 24 h, 103 mg/kg
[11] = RS4;11, single dose AZD0466 103 mg/kg, 48 h, 103 mg/kg
[12] = RS4;11, single dose AZD0466 103 mg/kg, 72 h, 103 mg/kg

CN(CCO)CCC(CSc1ccccc1)Nc1ccc(S(=O)(=O)NC(=O)c2ccc(N3CCC(C(O)c4ccccc4-c4ccc(Cl)cc4)CC3)cc2)cc1S(=O)(=O)C(F)(F)F (stereo not shown) [AZD4320]
MTD at 48 h (in vivo): < 3 mg/kg
Tumor PK Released AZD4320, individual tumours ([1]; RS4;11, single dose 10 mg/kg or equivalent, 0.5 h, 10 mg/kg): 910 ng/g
Tumor PK Released AZD4320, individual tumours ([1]; RS4;11, single dose 10 mg/kg or equivalent, 1 h, 10 mg/kg): 813 ng/g
Tumor PK Released AZD4320, individual tumours ([1]; RS4;11, single dose 10 mg/kg or equivalent, 5 h, 10 mg/kg): 1290 ng/g and 307 ng/g
Tumor PK Released AZD4320, individual tumours ([1]; RS4;11, single dose 10 mg/kg or equivalent, 24 h, 10 mg/kg): 232 ng/g
time of maximum (released) AZD4320 concentration in tumour ([1]; RS4;11 tumours, 10 mg/kg or equivalent): ≤ 0.5 h
concentration at 0.5 h ([1]; female, C.B-17 SCID, mouse, tumour (RS4;11 xenograft), intravenous, 10 mg/kg, RS4;11, single dose 10 mg/kg or equivalent, 0.5 h, read-out: Tumor PK released AZD4320, individual tumours): 1360 ng/g
concentration at 1 h ([1]; female, C.B-17 SCID, mouse, tumour (RS4;11 xenograft), intravenous, 10 mg/kg, RS4;11, single dose 10 mg/kg or equivalent, 1 h, read-out: Tumor PK released AZD4320, individual tumours): 1220 ng/g
concentration at 24 h ([1]; female, C.B-17 SCID, mouse, tumour (RS4;11 xenograft), intravenous, 10 mg/kg, RS4;11, single dose 10 mg/kg or equivalent, 24 h, read-out: Tumor PK released AZD4320, individual tumours): 359 ng/g
Constant for return of released AZD4320 from tumour tissue to systemic circulation (first order) ktu [2]: 0.053 h⁻¹

AZD4320-MIDA-PEG2100 [AZD0466]
effect on platelet count (platelets): reversible and dose-dependent decrease in platelet count
animals with complete and durable regressions (SUDHL-4 xenograft; SUDHL-4, 103 mg/kg AZD0466 + 10 mg/kg rituximab): 5/6
animals with complete and durable regressions (SUDHL-4 xenograft; SUDHL-4, 172 mg/kg AZD0466 + 10 mg/kg rituximab): 6/6
combination effect (SUDHL-4 xenograft; SUDHL-4, AZD0466 at various doses combined with 10 mg/kg rituximab): tumour regressions were seen in the combination groups at all doses
SUDHL-4 xenograft efficacy, Geo Mean (SUDHL-4 xenograft; day 1): 200.82
SUDHL-4 xenograft efficacy, Geo Mean (SUDHL-4 xenograft; day 5): 191.7
SUDHL-4 xenograft efficacy, Geo Mean (SUDHL-4 xenograft; day 9): 255.655
SUDHL-4 xenograft efficacy, Geo Mean (SUDHL-4 xenograft; day 12): 291.711
SUDHL-4 xenograft efficacy, Geo Mean (SUDHL-4 xenograft; day 16): 450.847
SUDHL-4 xenograft efficacy, Geo Mean (SUDHL-4 xenograft; day 19): 493.153
SUDHL-4 xenograft efficacy, Geo Mean (SUDHL-4 xenograft; day 23): 795.158
SUDHL-4 xenograft efficacy, Geo Mean (SUDHL-4 xenograft; day 26): 1047.96
SUDHL-4 xenograft efficacy, Geo Mean (SUDHL-4 xenograft; day 29): 1181.66
Concentration of Released AZD4320 in Tumour, Mean ([1]; 1 hr): 0.0081 µg/mL
Concentration of Released AZD4320 in Tumour, individual samples (Fig 5g/5h) ([1]; 1 hr): 0.0082 µg/mL and 0.0112 µg/mL and 0.0047 µg/mL
Concentration of Released AZD4320 in Tumour, Mean ([1]; 3 hr): 0.0151 µg/mL
Concentration of Released AZD4320 in Tumour, individual samples (Fig 5g/5h) ([1]; 3 hr): 0.0160 µg/mL and 0.0188 µg/mL and 0.0104 µg/mL
Concentration of Released AZD4320 in Tumour, Mean ([1]; 9 hr): 0.109 µg/mL
Concentration of Released AZD4320 in Tumour, individual samples (Fig 5g/5h) ([1]; 9 hr): 0.1788 µg/mL and 0.0714 µg/mL and 0.0780 µg/mL
Concentrations of Total AZD4320 in Tumour, individual samples ([1]; 9 hr): 1.886 µg/mL and 0.831 µg/mL and 0.866 µg/mL
Concentration of Released AZD4320 in Tumour, Mean ([1]; 20 hr): 0.244 µg/mL
Concentration of Released AZD4320 in Tumour, individual samples (Fig 5g/5h) ([1]; 20 hr): 0.2149 µg/mL and 0.2501 µg/mL and 0.2679 µg/mL
Concentration of Released AZD4320 in Tumour, Mean ([1]; 48 hr): 0.389 µg/mL
Concentration of Released AZD4320 in Tumour, individual samples (Fig 5g/5h) ([1]; 48 hr): 0.4939 µg/mL and 0.1234 µg/mL and 0.5502 µg/mL
Concentrations of Total AZD4320 in Tumour, individual samples ([1]; 48 hr): 1.152 µg/mL and 0.319 µg/mL and 1.257 µg/mL
Concentration of Released AZD4320 in Tumour, Mean ([1]; 72 hr): 0.462 µg/mL
Concentration of Released AZD4320 in Tumour, individual samples (Fig 5g/5h) ([1]; 72 hr): 0.2902 µg/mL and 0.6115 µg/mL and 0.4850 µg/mL
Tumor PK Released AZD4320, individual tumours [1, 3]: 16 ng/g and 18.8 ng/g and 10.4 ng/g
Tumor PK Total AZD4320, individual tumours [1, 3]: 621 ng/g and 697 ng/g and 376 ng/g
Tumor PK Released AZD4320, individual tumours [1, 4]: 179 ng/g and 71.4 ng/g and 78 ng/g
Tumor PK Total AZD4320, individual tumours [1, 4]: 1886 ng/g and 831 ng/g and 866 ng/g
Tumor PK Released AZD4320, individual tumours [1, 5]: 215 ng/g and 250 ng/g and 268 ng/g
Tumor PK Total AZD4320, individual tumours [1, 5]: 926 ng/g and 923 ng/g and 1118 ng/g
Tumor PK Released AZD4320, individual tumours [1, 6]: 494 ng/g and 123 ng/g and 550 ng/g
Tumor PK Total AZD4320, individual tumours [1, 6]: 1152 ng/g and 319 ng/g and 1257 ng/g
Tumor PK Released AZD4320, individual tumours [1, 7]: 290 ng/g and 612 ng/g and 485 ng/g
Tumor PK Total AZD4320, individual tumours [1, 7]: 536 ng/g and 983 ng/g and 719 ng/g
Tumor PK Released AZD4320, individual tumours [1, 8]: 227 ng/g and 79 ng/g and 90 ng/g
Tumor PK Total AZD4320, individual tumours [1, 8]: 5852 ng/g and 2518 ng/g and 2703 ng/g
Tumor PK Released AZD4320, individual tumours [1, 9]: 1407 ng/g and 1218 ng/g and 972 ng/g
Tumor PK Total AZD4320, individual tumours [1, 9]: 14358 ng/g and 9822 ng/g and 9418 ng/g
Tumor PK Released AZD4320, individual tumours [1, 10]: 1730 ng/g and 1595 ng/g and 1484 ng/g
Tumor PK Total AZD4320, individual tumours [1, 10]: 4335 ng/g and 4133 ng/g and 3920 ng/g
Tumor PK Released AZD4320, individual tumours [1, 11]: 3581 ng/g and 4025 ng/g and 5214 ng/g
Tumor PK Total AZD4320, individual tumours [1, 11]: 6225 ng/g and 5604 ng/g and 9523 ng/g
Tumor PK Released AZD4320, individual tumours [1, 12]: 3295 ng/g and 5783 ng/g and 7049 ng/g
Tumor PK Total AZD4320, individual tumours [1, 12]: 6132 ng/g and 7039 ng/g and 8246 ng/g
Mean concentration of total AZD4320 in tumour ([1]; 1 hr): 0.536 µg/mL
Concentration of total AZD4320 in tumour ([1]; 1 hr): 0.553 µg/mL and 0.665 µg/mL and 0.390 µg/mL
Mean concentration of total AZD4320 in tumour ([1]; 3 hr): 0.565 µg/mL
Concentration of total AZD4320 in tumour ([1]; 3 hr): 0.621 µg/mL and 0.697 µg/mL and 0.376 µg/mL
Mean concentration of total AZD4320 in tumour ([1]; 9 hr): 1.194 µg/mL
Mean concentration of total AZD4320 in tumour ([1]; 20 hr): 0.989 µg/mL
Concentration of total AZD4320 in tumour ([1]; 20 hr): 0.926 µg/mL and 0.923 µg/mL and 1.118 µg/mL
Mean concentration of total AZD4320 in tumour ([1]; 48 hr): 0.909 µg/mL
Mean concentration of total AZD4320 in tumour ([1]; 72 hr): 0.746 µg/mL
Concentration of total AZD4320 in tumour ([1]; 72 hr): 0.536 µg/mL and 0.983 µg/mL and 0.719 µg/mL
